Experimental data from IntAct's records for PubMed 16369487.

B1: SPRY domain-containing SOCS box protein 2 (Mus musculus), O88838 (parent)
chain: MGQTALARGSSSTPTSQALYSDFSPPEGLEELLSAPPPDLVAQRHHGWNPKDCSENIDVKEGGLCFERRPVAQSTDGVRGKRGYSRGLHAWEISWPLEQRGTHAVVGVATALAPLQADHYAALLGSNSESWGWDIGRGKLYHQSKGLEAPQYPAGPQGEQLVVPERLLVVLDMEEGTLGYSIGGTYLGPAFRGLKGRTLYPSVSAVWGQCQVRIRYMGERRVEEPQSLLHLSRLCVRHALGDTRLGQISTLPLPPAMKRYLLYK
partner: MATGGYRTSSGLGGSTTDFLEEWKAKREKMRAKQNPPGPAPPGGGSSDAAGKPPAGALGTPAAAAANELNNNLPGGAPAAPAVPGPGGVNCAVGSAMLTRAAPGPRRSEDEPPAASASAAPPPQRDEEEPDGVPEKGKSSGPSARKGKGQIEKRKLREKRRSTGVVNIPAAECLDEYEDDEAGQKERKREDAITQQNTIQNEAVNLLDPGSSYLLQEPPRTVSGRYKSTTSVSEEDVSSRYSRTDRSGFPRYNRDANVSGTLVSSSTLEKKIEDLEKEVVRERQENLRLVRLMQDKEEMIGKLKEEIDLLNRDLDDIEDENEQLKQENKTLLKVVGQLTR

Variants of: B1
Conditions: with pawr_human PAWR

**Q.** With MGQTALARGSSSTPTSQALYSDFSPPEGLEELLSAPPPDLVAQRHHGWNPKDCSENIDVKEGGLCFERRPVAQSTDGVRGKRGYSRGLHAWEISWPLEQRGTHAVVGVATALAPLQADHAAALLGSNSESWGWDIGRGKLYHQSKGLEAPQYPAGPQGEQLVVPERLLVVLDMEEGTLGYSIGGTYLGPAFRGLKGRTLYPSVSAVWGQCQVRIRYMGERRVEEPQSLLHLSRLCVRHALGDTRLGQISTLPLPPAMKRYLLYK [Y120A] as the variant, how does the “effect of a mutation on the interaction” value read?
**A.** disrupting interaction

**Q.** How did the “effect of a mutation on the interaction” value turn out when MGQTALARGSSSTPTSQALYSDFSPPEGLEELLSAPPPDLVAQRHHGWNPKDCSENIDVKEGGLCFERRPVAQSTDGVRGKRGYSRGLHAWEISWPLEQRGTHAVVGVATALAPLQADHYAALLGSNSESWGWDIGRGKLAAASKGLEAPQYPAGPQGEQLVVPERLLVVLDMEEGTLGYSIGGTYLGPAFRGLKGRTLYPSVSAVWGQCQVRIRYMGERRVEEPQSLLHLSRLCVRHALGDTRLGQISTLPLPPAMKRYLLYK [Y141A;H142A;Q143A] was run?
**A.** disrupting interaction strength

**Q.** For MGQTALARGSSSTPTSQALYSDFSPPEGLEELLSAPPPDLVAQRHHGWNPKDCSENIDVKEGGLCFERRPVAQSTDGVRGKRGYSRGLHAWEISWPLEQRGTHAVVGVATALAPLQADHYAALLGSNSESWGWDIGRGKLYHQSKGLEAPAAPAGPQGEQLVVPERLLVVLDMEEGTLGYSIGGTYLGPAFRGLKGRTLYPSVSAVWGQCQVRIRYMGERRVEEPQSLLHLSRLCVRHALGDTRLGQISTLPLPPAMKRYLLYK [Q151A;Y152A], which “effect of a mutation on the interaction” value is on record?
**A.** disrupting interaction strength

**Q.** For MGQTALARGSSSTPTSQALYSDFSPPEGLEELLSAPPPDLVAQRHHGWNPKDCSENIDVKEGGLCFERRPVAQSTDGVRGKRGYSRGLHAWEISWPLEQRGTHAVVGVATALAPLQADHYAALLGSNSESWGWDIGRGKLYHQSKGLEAPQYPAGPQGEQLVVPERLLVVLDMEEGTLGYSIGGTYLAAAFRGLKGRTLYPSVSAVWGQCQVRIRYMGERRVEEPQSLLHLSRLCVRHALGDTRLGQISTLPLPPAMKRYLLYK [G188A;P189A], which “effect of a mutation on the interaction” value is on record?
**A.** disrupting interaction strength

**Q.** How did the “effect of a mutation on the interaction” value turn out when MGQTALARGSSSTPTSQALYSDFSPPEGLEELLSAPPPDLVAQRHHGWNPKDCSENIDVKEGGLCFERRPVAQSTDGVRGKRGYSRGLHAWEISWPLEQRGTHAVVGVATALAPLQADHYAAAAASNSESWGWDIGRGKLYHQSKGLEAPQYPAGPQGEQLVVPERLLVVLDMEEGTLGYSIGGTYLGPAFRGLKGRTLYPSVSAVWGQCQVRIRYMGERRVEEPQSLLHLSRLCVRHALGDTRLGQISTLPLPPAMKRYLLYK [L123A;L124A;G125A] was run?
**A.** disrupting interaction strength

**Q.** For MGQTALARGSSSTPTSQALYSDFSPPEGLEELLSAPPPDLVAQRHHGWNPKDCSENIDVKEGGLCFERRPVAQSTDGVRGKRGYSRGLHAWEISWPLEQRGTHAVVGVATALAPLQADHYAALLGSNSESWGWDIGRGKLYHQSKGLEAPQYPAGPQGEQLVVPERLLVVLDMEEGTLGYSIGGTYLGPAFRGLKGRTLYPSVSAAWGQCQVRIRYMGERRVEEPQSLLHLSRLCVRHALGDTRLGQISTLPLPPAMKRYLLYK [V206A], which “effect of a mutation on the interaction” value is on record?
**A.** disrupting interaction
